{"source": "patent US7144576", "molecular_target": "bovine transducin (UniProt P04695)", "sequence (P04695 2-350)": "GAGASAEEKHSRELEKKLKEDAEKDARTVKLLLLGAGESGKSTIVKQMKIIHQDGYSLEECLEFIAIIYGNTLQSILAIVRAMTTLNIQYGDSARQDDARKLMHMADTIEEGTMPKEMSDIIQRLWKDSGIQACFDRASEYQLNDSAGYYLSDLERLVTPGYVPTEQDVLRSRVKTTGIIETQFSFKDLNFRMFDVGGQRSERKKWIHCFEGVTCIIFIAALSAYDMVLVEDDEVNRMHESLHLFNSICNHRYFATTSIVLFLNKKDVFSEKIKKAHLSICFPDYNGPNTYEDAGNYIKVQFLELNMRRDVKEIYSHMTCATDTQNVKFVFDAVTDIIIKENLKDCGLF"}
{"substance": "recombinant S1 protein of native sequence from pPTXS1/1", "values": [{"measurement": "ADP-ribosyltransferase activity (autoradiogram of SDS-PAGE, [32P]NAD)", "value": "The radioactive band at 39 Kd is the transducin subunit which has been ribosylated"}]}
